The supplement of paper PMC10567573

B1: CAMK2D (parent)
chain: LLKHPNIVRLHDSISEEGFHYLVF
B2: MLH1 (parent)
chain: YAHQMVRTDSREQKLDAFLQPLSK
B3: ESR2 (parent)
chain: KSCQACRLRKCYEVGMVKCGSRRE

Variants of: B1
Assay: protein stability index of a GFP-peptide fusion (GPS, HEK-293T) (PSI 1-6); higher = more stable
Conditions: c terminus: a fixed tail appended
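Note: lentivirally expressed fusions sorted by FACS into six bins by GFP to DsRed ratio, PSI derived from sequencing read proportions per bin multiplied by bin number.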

Protein stability index of substitutions, site by site:
G18: W 1.61 | M 2.1
E17: V 2.47
V23: A 2.81
N6: K 2.36

Variants of: B2
Assay: as above
Conditions: c terminus: a fixed tail appended

Protein stability index: each site, then its substitutions
Q4: A 2.1 | W 2.7 | F 2 | I 2.16 | C 2.07 | G 2 | L 2.37 | M 2.51 | T 2.16 | S 2.42 | R 1.93 | K 2 | V 2.37 | H 2.04
D16: V 1.66 | Y 1.57 | W 3.5 | G 2.08 | A 2.69 | K 2.63 | N 1.91 | C 1.99 | S 2.1 | I 2.16 | L 1.62 | Q 2.46
A17: D 3 | N 3.19 | R 2.66 | M 2.45 | L 1.85 | E 2.98 | K 3.29 | I 2.69 | V 3.02 | F 1.88 | W 2.19 | S 2.57 | P 2.66 | C 2.15 | Q 2.06
L15: E 3.83 | I 2.17 | D 3.25 | H 2.57 | F 2.2 | N 3.28 | G 3.28 | W 2.37 | Q 3.77
E12: H 2.34 | A 2.37 | T 2.29 | W 1.6 | R 2.53 | Y 1.98 | L 2 | F 1.74 | D 3.18 | S 2.32 | V 2.42 | P 2.32 | C 2.19 | M 1.87 | G 2.2 | I 1.82 | N 2.37
S23: A 1.99 | P 2.18 | R 2.45 | D 3.41 | F 2.4 | E 2.86 | G 3.24 | W 2.27 | H 2.01 | Q 2.7 | T 2.43 | N 2.42
R11: C 2.59 | W 1.33 | T 3.34 | G 2.78 | I 2.1 | L 1.95 | Q 2.84 | F 2.51 | P 2.46
L19: G 2.12 | R 3.33 | N 2.85 | T 3.02 | Q 3.02 | D 3.02 | K 3.16 | H 3.12 | W 2.42 | I 2.21 | E 3.38 | V 2.84 | P 2.55
A2: H 1.8 | C 2.09 | R 3.12 | Q 2.74 | L 2.84 | T 2.55 | G 3.19 | N 3.54 | Y 2.39 | V 1.93 | S 2.82 | D 4.03 | M 3.12
L22: K 2.98 | I 3.13 | R 3.02 | F 2.07 | T 3.2 | M 2.43 | D 3.38 | S 3.14 | A 2.59 | P 2.06 | Y 2.03 | C 2.59 | N 3.11 | H 2.45 | G 3.03 | E 3.02
V6: M 2.29 | I 2.43 | F 2.19 | K 2.53 | D 3.03 | T 2.7 | S 2.97 | Q 2.71 | L 2.48 | Y 2.42
M5: F 2.34 | N 3.16 | E 3.31 | H 2.53 | R 2.59 | Y 2.43 | D 3.34 | K 2.98 | L 2.49 | P 2.57 | G 2.63 | S 3.02
S10: G 2.71 | Q 2.78 | E 2.79 | A 2.97 | W 1.66 | N 2.43 | L 1.72 | R 2.51 | M 2.53 | T 2.39 | I 3
F18: V 3.15 | Y 2.27 | L 2.4 | W 1.85 | E 3.12 | R 3.17 | D 3.79 | N 3.15 | C 3.22 | T 3.36 | S 3.52 | Q 3.55 | H 3.29 | G 2.79
Y1: H 3.6 | D 4.12 | K 3.88 | S 3.88 | T 3.87 | F 2.12 | C 1.59 | R 3.12 | L 3.16 | W 2.66 | N 2.95 | A 3.48 | G 3.87 | Q 3.97 | I 3.38 | M 3.11
H3: F 2.19 | C 2.01 | Y 2 | G 2.15 | K 2.75 | D 3.05 | I 2.5 | N 3.13 | L 2.19
K14: I 2.43 | C 2.08 | A 2.84 | W 1.86 | Y 1.83 | E 2.78 | V 2.57 | L 1.54 | N 2.48 | D 2.46 | F 2
T8: G 2.69 | W 1.83 | S 2.71 | L 2.43 | P 2.19 | C 2.27 | I 2.49 | D 2.78 | F 2.12 | H 2.04
P21: M 1.9 | D 2.84 | N 2.4 | W 2.4 | I 2.57 | V 2.48 | Q 2.7 | Y 1.71 | L 2.16 | H 2.57 | S 3 | K 2.42 | T 2.21 | C 2.2
Q20: E 2.51 | A 2.49 | F 1.91 | V 2.09 | M 2.45 | Y 1.88 | I 2.07 | L 2.53 | R 2.5 | C 1.98 | H 2.78 | W 2.99 | D 3.39
K24: F 1.78 | I 1.95 | G 2.48 | L 1.85 | E 3.28 | C 2.29 | W 2.16 | D 3.26
D9: P 2.29 | W 1.8 | C 2.46 | R 2.54 | Y 1.98 | H 2.75 | A 2.18 | S 2.54 | M 2.49 | I 2.15 | N 2.53 | T 1.99 | V 1.89 | L 2.15 | Q 2.7 | E 2.95
R7: P 3.06 | G 1.96 | W 2.32 | K 2.74 | V 2.12 | F 2.18 | E 3.17 | I 2.57 | C 1.59 | N 2.98
Q13: C 1.54 | T 2.7 | W 2.18 | R 2.78 | I 1.94 | H 2.04 | M 2.06 | F 1.72 | G 2.32 | N 2.48

Variants of: B3
Assay: as above
Conditions: c terminus: a fixed tail appended

Protein stability index: each site, then its substitutions
E24: F 1.91 | M 1.67 | A 2.44 | T 2.12 | W 2.33 | L 2.07 | D 2.28 | I 1.73 | C 2.28 | N 2.02 | K 2.45 | S 1.79 | H 1.68 | Q 1.88 | G 2.92 | Y 1.42 | R 2.24 | P 2.74 | V 2.19
R23: T 1.85 | M 1.98 | Y 2.09 | N 2.17 | K 1.96 | W 1.67 | P 2.2 | L 1.58 | S 2.25 | F 2.51 | Q 2.21 | E 2.33 | H 1.96 | G 1.79 | I 2.43 | V 2.41
